Measured values reported in patent US8865654B2, “Eye drops” (Santen Pharmaceutical Co., Ltd., priority 2009, dated 2014).
No end group written: not given here.

Assay: Stability test of eye drop (residual ratio by HPLC after storage at 40° C.)
Assay type: physicochemical
Settings: eye drop SSSR acetate 0.003% + FGLM hydrochloride 0.05% (w/v)
Procedure: Each sample (100 mL, eye drop) containing the SSSR acetate at 0.003% (w/v) and the FGLM hydrochloride at 0.05% (w/v) was prepared at a pH in a range of 2.5 to 7.0 and stored at 40° C. The concentrations of the SSSR and the FGLM were measured by the HPLC method after 2 months storage, 3 months storage, and 6 months storage, and the residual ratios of the SSSR and the FGLM were determined, respectively.

## Phe-Gly-Leu-Met-NH2 (FGLM-NH2) [tetrapeptide at the C-terminal of Substance P, used as hydrochloride]
pH 2.5, 40° C., 2 months
  Residual ratio of FGLM: 79%
pH 2.5, 40° C., 3 months
  Residual ratio of FGLM: 72%
pH 2.5, 40° C., 6 months
  Residual ratio of FGLM: 54%
pH 3.0, 40° C., 2 months
  Residual ratio of FGLM: 91%
pH 3.0, 40° C., 3 months
  Residual ratio of FGLM: 89%
pH 3.0, 40° C., 6 months
  Residual ratio of FGLM: 79%
pH 3.5, 40° C., 2 months
  Residual ratio of FGLM: 95%
pH 3.5, 40° C., 3 months
  Residual ratio of FGLM: 94%
pH 3.5, 40° C., 6 months
  Residual ratio of FGLM: 90%
pH 4.0, 40° C., 2 months
  Residual ratio of FGLM: 96%
pH 4.0, 40° C., 3 months
  Residual ratio of FGLM: 96%
pH 4.0, 40° C., 6 months
  Residual ratio of FGLM: 94%
pH 4.5, 40° C., 2 months
  Residual ratio of FGLM: 97%
pH 4.5, 40° C., 3 months
  Residual ratio of FGLM: 97%
pH 4.5, 40° C., 6 months
  Residual ratio of FGLM: 96%
pH 5.0, 40° C., 2 months
  Residual ratio of FGLM: 97%
pH 5.0, 40° C., 3 months
  Residual ratio of FGLM: 97%
pH 5.0, 40° C., 6 months
  Residual ratio of FGLM: 97%
pH 5.5, 40° C., 2 months
  Residual ratio of FGLM: 97%
pH 5.5, 40° C., 3 months
  Residual ratio of FGLM: 97%
pH 5.5, 40° C., 6 months
  Residual ratio of FGLM: 96%
pH 6.0, 40° C., 2 months
  Residual ratio of FGLM: 96%
pH 6.0, 40° C., 3 months
  Residual ratio of FGLM: 96%
pH 6.0, 40° C., 6 months
  Residual ratio of FGLM: 95%
pH 6.5, 40° C., 2 months
  Residual ratio of FGLM: 95%
pH 6.5, 40° C., 3 months
  Residual ratio of FGLM: 95%
pH 6.5, 40° C., 6 months
  Residual ratio of FGLM: 93%
pH 7.0, 40° C., 2 months
  Residual ratio of FGLM: 94%
pH 7.0, 40° C., 3 months
  Residual ratio of FGLM: 93%
pH 7.0, 40° C., 6 months
  Residual ratio of FGLM: 90%

## Ser-Ser-Ser-Arg (SSSR; printed: Ser-Ser-Ser-Arg) [partial peptide of insulin-like growth factor I, used as acetate]
pH 2.5, 40° C., 2 months
  Residual ratio of SSSR: 100%
pH 2.5, 40° C., 3 months
  Residual ratio of SSSR: 100%
pH 2.5, 40° C., 6 months
  Residual ratio of SSSR: 100%
pH 3.0, 40° C., 2 months
  Residual ratio of SSSR: 99%
pH 3.0, 40° C., 3 months
  Residual ratio of SSSR: 96%
pH 3.0, 40° C., 6 months
  Residual ratio of SSSR: 98%
pH 3.5, 40° C., 2 months
  Residual ratio of SSSR: 99%
pH 3.5, 40° C., 3 months
  Residual ratio of SSSR: 96%
pH 3.5, 40° C., 6 months
  Residual ratio of SSSR: 93%
pH 4.0, 40° C., 2 months
  Residual ratio of SSSR: 98%
pH 4.0, 40° C., 3 months
  Residual ratio of SSSR: 97%
pH 4.0, 40° C., 6 months
  Residual ratio of SSSR: 92%
pH 4.5, 40° C., 2 months
  Residual ratio of SSSR: 97%
pH 4.5, 40° C., 3 months
  Residual ratio of SSSR: 97%
pH 4.5, 40° C., 6 months
  Residual ratio of SSSR: 89%
pH 5.0, 40° C., 2 months
  Residual ratio of SSSR: 97%
pH 5.0, 40° C., 3 months
  Residual ratio of SSSR: 87%
pH 5.0, 40° C., 6 months
  Residual ratio of SSSR: 81%
pH 5.5, 40° C., 2 months
  Residual ratio of SSSR: 94%
pH 5.5, 40° C., 3 months
  Residual ratio of SSSR: 86%
pH 5.5, 40° C., 6 months
  Residual ratio of SSSR: 80%
pH 6.0, 40° C., 2 months
  Residual ratio of SSSR: 90%
pH 6.0, 40° C., 3 months
  Residual ratio of SSSR: 77%
pH 6.0, 40° C., 6 months
  Residual ratio of SSSR: 68%
pH 6.5, 40° C., 2 months
  Residual ratio of SSSR: 84%
pH 6.5, 40° C., 3 months
  Residual ratio of SSSR: 67%
pH 6.5, 40° C., 6 months
  Residual ratio of SSSR: 51%
pH 7.0, 40° C., 2 months
  Residual ratio of SSSR: 70%
pH 7.0, 40° C., 3 months
  Residual ratio of SSSR: 51%
pH 7.0, 40° C., 6 months
  Residual ratio of SSSR: 35%
